From patent US20230272029A1, “CO-AGONISTS AT GLP-1 AND GIP RECEPTORS SUITABLE FOR ORAL DELIVERY” (Novo Nordisk A/S, priority 2020, published 2023)
Starred links: 1 amine or outer side, 2 acyl side, 3 side chain; linkers in the order of their positions; H or OH if unused. Non-standard residues stand in square brackets, D forms with d. Groups on a side chain read outwards from the residue. No end group written: not given here. *: point of attachment. C20 diacid = O=C(O)CCCCCCCCCCCCCCCCCCC(=O)*; C18 diacid = O=C(O)CCCCCCCCCCCCCCCCC(=O)*; γGlu = O=C(O)[C@H](CCC(=O)[*:2])N[*:1]; εLys = N[C@@H](CCCCN[*:1])C(=O)[*:2]; AEEA = NCCOCCOCC(=O)O; Aib = CC(C)(N)C(=O)O

Legend:
human GLP-1 receptor = human GLP-1 receptor (human, UniProt P43220 24-463); assay: cell-based or functional assay
human GIP receptor = molecular target: T1, human GIP receptor (human, UniProt P48546 22-466); assay: cell-based or functional assay
T1 sequence (looked up): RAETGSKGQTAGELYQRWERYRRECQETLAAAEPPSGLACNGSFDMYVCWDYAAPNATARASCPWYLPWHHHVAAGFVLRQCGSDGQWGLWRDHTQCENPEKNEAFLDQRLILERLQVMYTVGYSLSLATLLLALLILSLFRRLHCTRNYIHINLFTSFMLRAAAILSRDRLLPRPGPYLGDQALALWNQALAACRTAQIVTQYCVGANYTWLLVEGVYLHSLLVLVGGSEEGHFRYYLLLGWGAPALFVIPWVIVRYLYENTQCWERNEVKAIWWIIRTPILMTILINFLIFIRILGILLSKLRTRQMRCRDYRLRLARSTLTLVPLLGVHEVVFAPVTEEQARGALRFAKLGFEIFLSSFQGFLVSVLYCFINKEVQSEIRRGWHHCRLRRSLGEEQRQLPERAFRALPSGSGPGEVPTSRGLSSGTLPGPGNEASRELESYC

B1: Compound No. 37 (peptide)
peptide: Y[Aib]EGTFTSDYSIYLEEQAARK([εLys-εLys-γGlu-C18 diacid])FINWLLAGGPSSGAPPPS-OH
modifications: N-terminus assumed
SMILES: CC[C@H](C)[C@H](NC(=O)[C@H](Cc1ccccc1)NC(=O)[C@H](CCCCNC(=O)[C@@H](N)CCCCNC(=O)[C@@H](N)CCCCNC(=O)CC[C@H](NC(=O)CCCCCCCCCCCCCCCCC(=O)O)C(=O)O)NC(=O)[C@H](CCCNC(=N)N)NC(=O)[C@H](C)NC(=O)[C@H](C)NC(=O)[C@H](CCC(N)=O)NC(=O)[C@H](CCC(=O)O)NC(=O)[C@H](CCC(=O)O)NC(=O)[C@H](CC(C)C)NC(=O)[C@H](Cc1ccc(O)cc1)NC(=O)[C@@H](NC(=O)[C@H](CO)NC(=O)[C@H](Cc1ccc(O)cc1)NC(=O)[C@H](CC(=O)O)NC(=O)[C@H](CO)NC(=O)[C@@H](NC(=O)[C@H](Cc1ccccc1)NC(=O)[C@@H](NC(=O)CNC(=O)[C@H](CCC(=O)O)NC(=O)C(C)(C)NC(=O)[C@@H](N)Cc1ccc(O)cc1)[C@@H](C)O)[C@@H](C)O)[C@@H](C)CC)C(=O)N[C@@H](CC(N)=O)C(=O)N[C@@H](Cc1c[nH]c2ccccc12)C(=O)N[C@@H](CC(C)C)C(=O)N[C@@H](CC(C)C)C(=O)N[C@@H](C)C(=O)NCC(=O)NCC(=O)N1CCC[C@H]1C(=O)N[C@@H](CO)C(=O)N[C@@H](CO)C(=O)NCC(=O)N[C@@H](C)C(=O)N1CCC[C@H]1C(=O)N1CCC[C@H]1C(=O)N1CCC[C@H]1C(=O)N[C@@H](CO)C(=O)O
**Q.** How did the “hGLP-1R, CRE Luc 0% HSA EC50 (pM)” value (human GLP-1 receptor) turn out when B1 was run?
**A.** 2.7 pM

**Q.** What about the “hGLP-1R, CRE Luc 1% HSA EC50 (pM)” value (human GLP-1 receptor) of the same binder?
**A.** 94.6 pM

**Q.** What about the “hGIPR, CRE Luc 0% HSA EC50 (pM)” value (human GIP receptor) of the same binder?
**A.** 11.2 pM

**Q.** And the “hGIPR, CRE Luc 1% HSA EC50 (pM)” value (human GIP receptor)?
**A.** 298 pM

B2: Compound No. 10 (peptide)
peptide: Y[Aib]EGTFTSDYSIYLEK([AEEA-AEEA-γGlu-C18 diacid])QAAREFIEWLLAGGPSSGAPPPS-OH
modifications: N-terminus assumed
SMILES: CC[C@H](C)[C@H](NC(=O)[C@H](Cc1ccccc1)NC(=O)[C@H](CCC(=O)O)NC(=O)[C@H](CCCNC(=N)N)NC(=O)[C@H](C)NC(=O)[C@H](C)NC(=O)[C@H](CCC(N)=O)NC(=O)[C@H](CCCCNC(=O)COCCOCCNC(=O)COCCOCCNC(=O)CC[C@H](NC(=O)CCCCCCCCCCCCCCCCC(=O)O)C(=O)O)NC(=O)[C@H](CCC(=O)O)NC(=O)[C@H](CC(C)C)NC(=O)[C@H](Cc1ccc(O)cc1)NC(=O)[C@@H](NC(=O)[C@H](CO)NC(=O)[C@H](Cc1ccc(O)cc1)NC(=O)[C@H](CC(=O)O)NC(=O)[C@H](CO)NC(=O)[C@@H](NC(=O)[C@H](Cc1ccccc1)NC(=O)[C@@H](NC(=O)CNC(=O)[C@H](CCC(=O)O)NC(=O)C(C)(C)NC(=O)[C@@H](N)Cc1ccc(O)cc1)[C@@H](C)O)[C@@H](C)O)[C@@H](C)CC)C(=O)N[C@@H](CCC(=O)O)C(=O)N[C@@H](Cc1c[nH]c2ccccc12)C(=O)N[C@@H](CC(C)C)C(=O)N[C@@H](CC(C)C)C(=O)N[C@@H](C)C(=O)NCC(=O)NCC(=O)N1CCC[C@H]1C(=O)N[C@@H](CO)C(=O)N[C@@H](CO)C(=O)NCC(=O)N[C@@H](C)C(=O)N1CCC[C@H]1C(=O)N1CCC[C@H]1C(=O)N1CCC[C@H]1C(=O)N[C@@H](CO)C(=O)O
**Q.** How did the “hGLP-1R, CRE Luc 0% HSA EC50 (pM)” value (human GLP-1 receptor) turn out when B2 was run?
**A.** 3.9 pM

**Q.** And the “hGLP-1R, CRE Luc 1% HSA EC50 (pM)” value (human GLP-1 receptor)?
**A.** 940 pM

**Q.** And the “hGIPR, CRE Luc 1% HSA EC50 (pM)” value (human GIP receptor)?
**A.** 1750 pM

B3: Compound No. 1 (peptide)
peptide: Y[Aib]EGTFTSDYSIYLEK([εLys-εLys-γGlu-C20 diacid])QAAQEFVNWLLAGGPSSGAPPPS-NH2
modifications: N-terminus assumed
SMILES: CC[C@H](C)[C@H](NC(=O)[C@H](CO)NC(=O)[C@H](Cc1ccc(O)cc1)NC(=O)[C@H](CC(=O)O)NC(=O)[C@H](CO)NC(=O)[C@@H](NC(=O)[C@H](Cc1ccccc1)NC(=O)[C@@H](NC(=O)CNC(=O)[C@H](CCC(=O)O)NC(=O)C(C)(C)NC(=O)[C@@H](N)Cc1ccc(O)cc1)[C@@H](C)O)[C@@H](C)O)C(=O)N[C@@H](Cc1ccc(O)cc1)C(=O)N[C@@H](CC(C)C)C(=O)N[C@@H](CCC(=O)O)C(=O)N[C@@H](CCCCNC(=O)[C@@H](N)CCCCNC(=O)[C@@H](N)CCCCNC(=O)CC[C@H](NC(=O)CCCCCCCCCCCCCCCCCCC(=O)O)C(=O)O)C(=O)N[C@@H](CCC(N)=O)C(=O)N[C@@H](C)C(=O)N[C@@H](C)C(=O)N[C@@H](CCC(N)=O)C(=O)N[C@@H](CCC(=O)O)C(=O)N[C@@H](Cc1ccccc1)C(=O)N[C@H](C(=O)N[C@@H](CC(N)=O)C(=O)N[C@@H](Cc1c[nH]c2ccccc12)C(=O)N[C@@H](CC(C)C)C(=O)N[C@@H](CC(C)C)C(=O)N[C@@H](C)C(=O)NCC(=O)NCC(=O)N1CCC[C@H]1C(=O)N[C@@H](CO)C(=O)N[C@@H](CO)C(=O)NCC(=O)N[C@@H](C)C(=O)N1CCC[C@H]1C(=O)N1CCC[C@H]1C(=O)N1CCC[C@H]1C(=O)N[C@@H](CO)C(N)=O)C(C)C
**Q.** For B3, which “hGLP-1R, CRE Luc 0% HSA EC50 (pM)” value (human GLP-1 receptor) is on record?
**A.** 7.8 pM

**Q.** What about the “hGLP-1R, CRE Luc 1% HSA EC50 (pM)” value (human GLP-1 receptor) of the same binder?
**A.** 1660 pM

**Q.** What about the “hGIPR, CRE Luc 0% HSA EC50 (pM)” value (human GIP receptor) of the same binder?
**A.** 2.8 pM

**Q.** And the “hGIPR, CRE Luc 1% HSA EC50 (pM)” value (human GIP receptor)?
**A.** 172 pM
